Results published in patent publication US20180346564A1 (TEIJIN PHARMA, published 2018).
Numbering of substitutions follows the chain as printed. Numbers in names are those of the source. [ ]: non-standard residue; d: D form. pT = C[C@@H](OP(=O)(O)O)[C@H](N)C(=O)O; pS = N[C@@H](COP(=O)(O)O)C(=O)O

T1: Peptide No. 6, pT231, H-KVAVVR(pT)PPKSPS-OH (human)
T1 peptide: H-KVAVVR[pT]PPKSPS-OH

T2: Peptide No. 2, pS199, H-SGYS(pS)PGSPGC-OH (human, SMILES N[C@@H](CO)C(=O)NCC(=O)N[C@@H](Cc1ccc(O)cc1)C(=O)N[C@@H](CO)C(=O)N[C@@H](COP(=O)(O)O)C(=O)N1CCC[C@H]1C(=O)NCC(=O)N[C@@H](CO)C(=O)N1CCC[C@H]1C(=O)NCC(=O)N[C@@H](CS)C(=O)O)
T2 peptide: H-SGYS[pS]PGSPGC-OH

T3: Peptide No. 8, pS412, H-NV(pS)STGSC-OH (human, SMILES CC(C)[C@H](NC(=O)[C@@H](N)CC(N)=O)C(=O)N[C@@H](COP(=O)(O)O)C(=O)N[C@@H](CO)C(=O)N[C@H](C(=O)NCC(=O)N[C@@H](CO)C(=O)N[C@@H](CS)C(=O)O)[C@@H](C)O)
T3 peptide: H-NV[pS]STGSC-OH

T4: Peptide No. 5, pT217, H-GC-GSRSRTPSLP(pT)PPTREPKKVAVV-OH (human, phosphothreonine (pT) at peptide position 13 (tau Thr217))
T4 peptide: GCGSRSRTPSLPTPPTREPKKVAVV

T5: Peptide No. 7, pS396/pS400/pS404, H-GC-RENAKAKTDHGAEIVYK(pS)PVV(pS)GDT(pS)PRHL-OH (human, phosphoserine (pS) at peptide positions 20, 24 and 28 (tau Ser396, Ser400, Ser404))
T5 peptide: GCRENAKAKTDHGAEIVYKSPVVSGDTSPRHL

T6: Peptide No. 3, pS202, H-SSPG(pS)PGTPC-OH (human, SMILES C[C@@H](O)[C@H](NC(=O)CNC(=O)[C@@H]1CCCN1C(=O)[C@H](COP(=O)(O)O)NC(=O)CNC(=O)[C@@H]1CCCN1C(=O)[C@H](CO)NC(=O)[C@@H](N)CO)C(=O)N1CCC[C@H]1C(=O)N[C@@H](CS)C(=O)O)
T6 peptide: H-SSPG[pS]PGTPC-OH

T7: Peptide No. 4, pT212/pS214, H-GCGSPGTPGSRSR(pT)P(pS)LPTPPTREPK-OH (human, phosphothreonine (pT) at peptide position 14 (tau Thr212); phosphoserine (pS) at peptide position 16 (tau Ser214))
T7 peptide: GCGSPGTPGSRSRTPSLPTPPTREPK

T8: Peptide No. 1, pS46, H-GLKE(pS)PLQT-OH (human, SMILES CC(C)C[C@H](NC(=O)CN)C(=O)N[C@@H](CCCCN)C(=O)N[C@@H](CCC(=O)O)C(=O)N[C@@H](COP(=O)(O)O)C(=O)N1CCC[C@H]1C(=O)N[C@@H](CC(C)C)C(=O)N[C@@H](CCC(N)=O)C(=O)N[C@H](C(=O)O)[C@@H](C)O)
T8 peptide: H-GLKE[pS]PLQT-OH

B1: humanized antibody L48H61 (antibody, human IgG1, kappa, V domains shown)
VH: EVQLVESGGGLVQPGGSLRLSCAASGFTFNSFALNWVRQAPGKGLEWVVHIRSKTNNYATFYADSVKDRFTVSRDDSKNTAYLQMNSLKTEDTATYYCVRRGPRDSWFGYWGQGTLVTVSS
VL: DIVMTQSPLSLPVTLGDPASISCRSSQNIVHSNGNTYLEWYQQKPGQSPQLLIYTVSNRFSGVPDRFSGSGSGTDFTLKISRVEAEDLGVYYCFQGSHLPLTFGGGTKVEIKR
notes: VL48/VH61, human IgG1/kappa
B2: humanized antibody L48H64 (antibody, human IgG1, kappa, V domains shown)
VH: B1 VH with D64A, K78Q
VL: B1 VL
notes: VL48/VH64, human IgG1/kappa
B3: humanized antibody L50H11 (antibody, human IgG1, kappa, V domains shown)
VH: B1 VH with N30S, V49G, D64A, K78Q
VL: B1 VL with Q50R
notes: VL50/VH11, human IgG1/kappa
B4: humanized antibody L48H62 (antibody, human IgG1, kappa, V domains shown)
VH: B1 VH with T28A
VL: B1 VL
notes: VL48/VH62, human IgG1/kappa
B5: Humanized × [MAPT_H] mAb (Ta1505 VL46/VH11) IgG4 S228P/Kappa (CX) (antibody)
heavy: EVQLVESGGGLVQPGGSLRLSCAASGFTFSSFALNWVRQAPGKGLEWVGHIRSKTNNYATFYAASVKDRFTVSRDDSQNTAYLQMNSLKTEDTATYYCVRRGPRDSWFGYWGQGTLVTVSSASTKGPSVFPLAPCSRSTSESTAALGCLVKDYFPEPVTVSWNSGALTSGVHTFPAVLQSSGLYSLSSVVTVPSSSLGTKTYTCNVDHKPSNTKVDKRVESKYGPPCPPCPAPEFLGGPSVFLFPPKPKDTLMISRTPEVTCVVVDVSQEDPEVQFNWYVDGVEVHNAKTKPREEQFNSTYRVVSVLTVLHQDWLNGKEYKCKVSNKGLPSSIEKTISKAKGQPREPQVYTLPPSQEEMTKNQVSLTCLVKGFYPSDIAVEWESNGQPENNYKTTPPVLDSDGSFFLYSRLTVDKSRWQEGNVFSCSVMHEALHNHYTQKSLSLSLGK
light: DIVMTQSPLSLPVTLGEPASISCRSSQSIVHSNGNTYLEWYLQKPGQSPQLLIYTVSNRFSGVPDRFSGSGSGTDFTLKISRVEAEDLGVYYCFQGSHLPLTFGGGTKVEIKRTVAAPSVFIFPPSDEQLKSGTASVVCLLNNFYPREAKVQWKVDNALQSGNSQESVTEQDSKDSTYSLSSTLTLSKADYEKHKVYACEVTHQGLSSPVTKSFNRGEC

target: T9, His-tagged non-phosphorylated tau protein 4R0N (human, UniProt P10636 2-758); experiment: SPR Biacore T200, antigen immobilized
T9 construct: Produced by Escherichia coli; negative control in SPR; also called ATGen Cat. No. ATGP0795
T9 sequence (P10636 other isoform, or with tags, fused parts or gaps limits assumed): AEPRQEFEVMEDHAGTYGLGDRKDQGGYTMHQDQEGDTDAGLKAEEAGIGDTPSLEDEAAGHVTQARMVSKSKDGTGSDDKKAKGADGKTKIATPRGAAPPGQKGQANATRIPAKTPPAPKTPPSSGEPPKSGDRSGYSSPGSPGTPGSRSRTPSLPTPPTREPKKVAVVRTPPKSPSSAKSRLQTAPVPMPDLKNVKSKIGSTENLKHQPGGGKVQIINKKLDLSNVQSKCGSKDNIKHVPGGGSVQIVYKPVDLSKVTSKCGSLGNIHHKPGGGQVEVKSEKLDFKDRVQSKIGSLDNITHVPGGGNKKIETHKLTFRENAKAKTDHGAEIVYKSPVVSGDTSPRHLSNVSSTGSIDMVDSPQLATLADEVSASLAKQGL
Description: The binding affinities of the hyperphosphorylated tau protein 4R2N (hpTau), non-phosphorylated tau protein 4R0N, monophosphorylated tau peptide 1×P, triphosphorylated tau peptide 3×P, and non-phosphorylated tau peptide Non P with each antibody were measured with an SPR system Biacore T200 (GE Healthcare Japan), in accordance with the instruction manual for evaluation attached to the system.
The His-tagged hpTau or Tau proteins were each immobilized on a sensor chip using an HBS-N buffer (code No. BR-1003-69) as the immobilization reaction solution and allowing a nickel chloride solution to react with the NTA sensor chip for bonding Ni to NTA. Subsequently, the sensor chip was activated with a mixed solution of N-ethyl-N′-(3-dimethylaminopropyl)-carbodiimide hydrochloride (1-ethyl-3-(3-dimethylaminopropyl)carbodiimide hydrochloride: EDC) and N-hydroxysuccinimide (NHS). A solution of each of the His-tagged proteins, adjusted to a concentration of 100 to 500 ng/mL with a 4-(2-hydroxyethyl)-1-piperazineethanesulfonic acid (HEPES) buffer (0.01 M HEPES, 150 mM KCl, 2 mM DTT, 1 mM EDTA, pH 7.2), was applied to the sensor chip, whereby the protein was immobilized on the sensor chip through covalent bonds with the Ni-NTA. The remaining active NHS was blocked with ethanolamine, and Ni ions were removed with an EDTA solution (Ni-affinity amine coupling: see International Publication No. WO2005/022156). The antigen peptides (1×P, 3×P, and Non P) were each immobilized on a sensor chip by activating the NTA sensor chip with a mixed solution of N-ethyl-N′-(3-dimethylaminopropyl)-carbodiimide (EDC) hydrochloride and N-hydroxysuccinimide (NHS), and then applying a solution of the antigen peptide diluted with a 10 mM sodium acetate buffer (pH: 4 to 4.5) to 1 to 10 μM to the sensor chip, whereby the peptide was covalently bound to the sensor chip. The remaining active NHS was blocked with ethanolamine. Thus, sensor chips immobilized respectively with the proteins and peptides mentioned above were produced.
A CAPS buffer (pH 10.5) was applied to these sensor chips at 37° C. to stabilize the protein- or peptide-immobilized surfaces of the sensor chips.

Row | Binder | binding result
1 | B1 | no binding (tested: 0.2 to 1 nM)
2 | B2 | no binding (tested: 0.2 to 1 nM)
3 | B3 | no binding (tested: 0.2 to 1 nM)
4 | B4 | no binding (tested: 0.2 to 1 nM)

Target: T1, Peptide No. 6, pT231, …
Experiment: ELISA, coated peptide
Outline: (§1)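 Peptides, or their bovine serum albumin or keyhole limpet hemocyanin conjugates, at 1 μg/mL in cold PBS were coated at 50 μL/well overnight at 4 °C, then blocked with 3% BSA-PBS overnight at 4 °C. Purified antibody at 150 ng/mL in 3% BSA-PBS was bound for 90 minutes at room temperature, followed by alkaline phosphatase-labelled goat anti-human IgG (H+L) (2000-fold, 60 minutes). Binding was read as absorbance at 405 nm (reference 550 nm) after 40 minutes of pNPP development.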

Row | Binder | binding result
5 | B1 | no binding (tested: OD value <0.5; antibody 150 ng/mL)
6 | B2 | no binding (tested: OD value <0.5; antibody 150 ng/mL)
7 | B3 | no binding (tested: OD value <0.5; antibody 150 ng/mL)
8 | B4 | no binding (tested: OD value <0.5; antibody 150 ng/mL)

Target: T2, Peptide No. 2, pS199, …
Experiment: ELISA, coated peptide
Outline: as §1

Row | Binder | binding result
9 | B1 | no binding (tested: OD value <0.5; antibody 150 ng/mL)
10 | B2 | no binding (tested: OD value <0.5; antibody 150 ng/mL)
11 | B3 | no binding (tested: OD value <0.5; antibody 150 ng/mL)
12 | B4 | no binding (tested: OD value <0.5; antibody 150 ng/mL)

Target: T3, Peptide No. 8, pS412, H-NV(pS)STGSC-OH
Experiment: ELISA, coated peptide
Outline: as §1

Row | Binder | binding result
13 | B1 | no binding (tested: OD value <0.5; antibody 150 ng/mL)
14 | B2 | no binding (tested: OD value <0.5; antibody 150 ng/mL)
15 | B3 | no binding (tested: OD value <0.5; antibody 150 ng/mL)
16 | B4 | no binding (tested: OD value <0.5; antibody 150 ng/mL)

Target: T4, Peptide No. 5, pT217, …
Experiment: ELISA, coated peptide
Outline: as §1

Row | Binder | binding result
17 | B1 | no binding (tested: OD value <0.5; antibody 150 ng/mL)
18 | B2 | no binding (tested: OD value <0.5; antibody 150 ng/mL)
19 | B3 | no binding (tested: OD value <0.5; antibody 150 ng/mL)
20 | B4 | no binding (tested: OD value <0.5; antibody 150 ng/mL)

Target: T5, Peptide No. 7, pS396/pS400/pS404, …
Experiment: ELISA, coated peptide
Outline: as §1

Row | Binder | binding result
21 | B1 | no binding (tested: OD value <0.5; antibody 150 ng/mL)
22 | B2 | no binding (tested: OD value <0.5; antibody 150 ng/mL)
23 | B3 | no binding (tested: OD value <0.5; antibody 150 ng/mL)
24 | B4 | no binding (tested: OD value <0.5; antibody 150 ng/mL)

Target: T6, Peptide No. 3, pS202, H-SSPG(pS)PGTPC-OH
Experiment: ELISA, coated peptide
Outline: as §1

Row | Binder | binding result
25 | B1 | no binding (tested: OD value <0.5; antibody 150 ng/mL)
26 | B2 | no binding (tested: OD value <0.5; antibody 150 ng/mL)
27 | B3 | no binding (tested: OD value <0.5; antibody 150 ng/mL)
28 | B4 | no binding (tested: OD value <0.5; antibody 150 ng/mL)

Target: T7, Peptide No. 4, pT212/pS214, …
Experiment: ELISA, coated peptide
Outline: as §1

Row | Binder | binding result
29 | B1 | no binding (tested: OD value <0.5; antibody 150 ng/mL)
30 | B2 | no binding (tested: OD value <0.5; antibody 150 ng/mL)
31 | B3 | no binding (tested: OD value <0.5; antibody 150 ng/mL)
32 | B4 | no binding (tested: OD value <0.5; antibody 150 ng/mL)

Target: T8, Peptide No. 1, pS46, H-GLKE(pS)PLQT-OH
Experiment: ELISA, coated peptide
Outline: as §1

Row | Binder | binding result
33 | B1 | no binding (tested: OD value <0.5; antibody 150 ng/mL)
34 | B2 | no binding (tested: OD value <0.5; antibody 150 ng/mL)
35 | B3 | no binding (tested: OD value <0.5; antibody 150 ng/mL)
36 | B4 | no binding (tested: OD value <0.5; antibody 150 ng/mL)

target: Ser413 phosphorylated tau protein (pSer413-Tau) derived from Alzheimer's disease patient brain homogenate (human, UniProt P10636-8 2-441, limits assumed, phosphoserine at Ser413 (numbering of SEQ ID NO: 1)); experiment: cell-based or functional assay
Sequence (P10636 other isoform, or with tags, fused parts or gaps limits assumed): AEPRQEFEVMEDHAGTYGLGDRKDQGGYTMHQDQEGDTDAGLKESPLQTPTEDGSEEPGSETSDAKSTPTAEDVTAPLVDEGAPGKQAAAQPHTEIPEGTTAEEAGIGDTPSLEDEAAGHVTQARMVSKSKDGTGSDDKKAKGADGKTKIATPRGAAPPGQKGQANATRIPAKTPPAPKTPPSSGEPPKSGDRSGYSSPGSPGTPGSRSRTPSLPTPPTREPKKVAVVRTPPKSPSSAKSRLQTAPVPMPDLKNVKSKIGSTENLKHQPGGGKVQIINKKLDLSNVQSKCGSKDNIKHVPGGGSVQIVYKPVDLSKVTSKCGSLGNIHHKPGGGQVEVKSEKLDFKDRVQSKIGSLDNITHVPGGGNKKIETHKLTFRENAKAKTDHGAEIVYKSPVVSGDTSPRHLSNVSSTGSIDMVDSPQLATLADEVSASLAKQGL

Row | Binder | IC50 of the fall of the AT8 AlphaLISA signal with the antibody concentration (signal falls from about 7500 to about 4400 at the highest concentration, about 400 nM; no lower plateau) [nM]
37 | B5 | 175
